Reference: PMC2749940, “Kissing G Domains of MnmE Monitored by X-Ray Crystallography and Pulse Electron Paramagnetic Resonance Spectroscopy” (PLoS Biology, 2009)

Key:
NoMnmE = target: T1, NoMnmE (Nostoc sp. PCC 7120 = FACHB-418, UniProt Q8YN91); test: X-ray crystal structure; format: binding; details: copurified from E. coli; two sites in N-terminal domain dimer interface; GDP also bound
T1 construct: gene mnmE; full length, N-terminal His-tag (pET14b, E. coli BL21-DE3) cut by thrombin; homodimer
T1 sequence (Q8YN91 1-459): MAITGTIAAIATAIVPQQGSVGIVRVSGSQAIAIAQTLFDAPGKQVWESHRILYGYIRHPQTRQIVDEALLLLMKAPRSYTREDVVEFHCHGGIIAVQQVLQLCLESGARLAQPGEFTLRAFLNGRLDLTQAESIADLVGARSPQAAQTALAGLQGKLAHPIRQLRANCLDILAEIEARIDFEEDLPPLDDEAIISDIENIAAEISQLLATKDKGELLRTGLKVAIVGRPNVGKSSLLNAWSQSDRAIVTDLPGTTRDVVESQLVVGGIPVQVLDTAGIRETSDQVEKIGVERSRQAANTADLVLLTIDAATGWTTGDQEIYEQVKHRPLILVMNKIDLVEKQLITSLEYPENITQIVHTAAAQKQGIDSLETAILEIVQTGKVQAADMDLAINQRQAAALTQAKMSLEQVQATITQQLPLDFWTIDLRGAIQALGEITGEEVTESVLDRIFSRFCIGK

CtMnmE = target: T2, CtMnmE (Chlorobaculum tepidum, UniProt Q8KAS1); test: X-ray crystal structure (soak); format: binding; details: 5 mM 5-F-THF in cryoprotectant; N-terminal domain dimer interface; GDP also bound
T2 construct: gene mnmE; full length, N-terminal His-tag (pET14b, E. coli BL21-DE3) cut by thrombin; homodimer
T2 sequence (Q8KAS1 1-473): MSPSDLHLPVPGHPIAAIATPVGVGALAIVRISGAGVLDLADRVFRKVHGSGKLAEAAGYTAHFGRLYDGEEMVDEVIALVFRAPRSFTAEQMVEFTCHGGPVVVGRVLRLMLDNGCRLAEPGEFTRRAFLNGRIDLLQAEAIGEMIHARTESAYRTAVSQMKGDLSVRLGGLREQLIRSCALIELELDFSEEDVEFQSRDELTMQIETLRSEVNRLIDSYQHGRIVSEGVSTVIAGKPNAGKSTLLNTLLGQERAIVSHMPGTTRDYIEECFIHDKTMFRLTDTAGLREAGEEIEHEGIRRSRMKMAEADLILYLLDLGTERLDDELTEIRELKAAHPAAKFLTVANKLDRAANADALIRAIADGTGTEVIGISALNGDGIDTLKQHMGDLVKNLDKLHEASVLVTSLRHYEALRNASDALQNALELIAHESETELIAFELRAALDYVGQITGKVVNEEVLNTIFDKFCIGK

[1] = target: the molecule itself; test: crystal structure; full-length MnmE crystallised with K+, GDP and AlFx (only GDP found bound); hanging-drop vapour diffusion; homodimer by crystallographic symmetry
[2] = target: the molecule itself; test: pulse EPR (four-pulse DEER) of spin-labelled protein; 200–500 µM MTSSL-labelled protein in 100 mM KCl (or NaCl, RbCl, CsCl, NH4Cl), 50 mM Tris-HCl, 5 mM MgCl2 pH 7.4; apo, 1 mM GDP, 1 mM GppNHp or GDP-AlFx; measured at 50 K; distances between the two symmetry-related labels of the dimer

| Molecule | binding result [2] | also measured |
| --- | --- | --- |
| Nc1nc2c(c(=O)[nH]1)N(C=O)[C@@H](CNc1ccc(C(=O)N[C@@H](CCC(=O)O)C(=O)O)cc1)CN2 [5-F-THF, 5-formyl-tetrahydrofolate] |  | X-ray crystal structure (NoMnmE): two molecules of 5-formyl-tetrahydrofolate (5-F-THF) were identified in the structure of NoMnmE·GDP; X-ray crystal structure (soak) (CtMnmE): in the crystal structure 5-F-THF is found in identical positions as in the NoMnmE·GDP-dimer |
| Chlorobium tepidum MnmE (natural protein, UniProt Q8KAS1 1-473, looked up, MnmE of Chlorobium tepidum, full-length protomer, cloned into pET14b; Crystallised with GDP (grown with GDP-AlFx and K+) and with GppCp; homodimer through the N-terminal domains; also called CtMnmE; CtMnmE·GDP; source: E. coli BL21-DE3, purified (Ni-NTA, thrombin cleavage of the His-tag, gel filtration on Superdex 200); not shown: His tag, N-terminal, cleaved) MSPSDLHLPVPGHPIAAIATPVGVGALAIVRISGAGVLDLADRVFRKVHGSGKLAEAAGYTAHFGRLYDGEEMVDEVIALVFRAPRSFTAEQMVEFTCHGGPVVVGRVLRLMLDNGCRLAEPGEFTRRAFLNGRIDLLQAEAIGEMIHARTESAYRTAVSQMKGDLSVRLGGLREQLIRSCALIELELDFSEEDVEFQSRDELTMQIETLRSEVNRLIDSYQHGRIVSEGVSTVIAGKPNAGKSTLLNTLLGQERAIVSHMPGTTRDYIEECFIHDKTMFRLTDTAGLREAGEEIEHEGIRRSRMKMAEADLILYLLDLGTERLDDELTEIRELKAAHPAAKFLTVANKLDRAANADALIRAIADGTGTEVIGISALNGDGIDTLKQHMGDLVKNLDKLHEASVLVTSLRHYEALRNASDALQNALELIAHESETELIAFELRAALDYVGQITGKVVNEEVLNTIFDKFCIGK |  | binding result [1]: binds |
| Nostoc sp. 7120 MnmE (natural protein, UniProt Q8YN91 1-459, looked up, MnmE of Nostoc sp; 7120, full-length protomer, cloned into pET14b; Crystallised with GDP (grown with GDP-AlFx and K+); 5-formyl-tetrahydrofolate was co-purified; also called NoMnmE; NoMnmE·GDP; source: E. coli BL21-DE3, purified (Ni-NTA, thrombin cleavage of the His-tag, gel filtration on Superdex 200); not shown: His tag, N-terminal, cleaved) MAITGTIAAIATAIVPQQGSVGIVRVSGSQAIAIAQTLFDAPGKQVWESHRILYGYIRHPQTRQIVDEALLLLMKAPRSYTREDVVEFHCHGGIIAVQQVLQLCLESGARLAQPGEFTLRAFLNGRLDLTQAESIADLVGARSPQAAQTALAGLQGKLAHPIRQLRANCLDILAEIEARIDFEEDLPPLDDEAIISDIENIAAEISQLLATKDKGELLRTGLKVAIVGRPNVGKSSLLNAWSQSDRAIVTDLPGTTRDVVESQLVVGGIPVQVLDTAGIRETSDQVEKIGVERSRQAANTADLVLLTIDAATGWTTGDQEIYEQVKHRPLILVMNKIDLVEKQLITSLEYPENITQIVHTAAAQKQGIDSLETAILEIVQTGKVQAADMDLAINQRQAAALTQAKMSLEQVQATITQQLPLDFWTIDLRGAIQALGEITGEEVTESVLDRIFSRFCIGK |  | binding result [1]: binds |
| E. coli MnmE-C451S E287R1 (Glu287 mutated to Cys, MTSSL-labelled) (natural protein, UniProt P25522 1-454, looked up, MTSSL spin label (R1 side chain) on the cysteine at 287, MnmE of E. coli, full length, Cys mutant in the C451S background; also called EcMnmE E287R1; source: purified, nucleotide-free) MSDNDTIVAQATPPGRGGVGILRISGFKAREVAETVLGKLPKPRYADYLPFKDADGSVLDQGIALWFPGPNSFTGEDVLELQGHGGPVILDLLLKRILTIPGLRIARPGEFSERAFLNDKLDLAQAEAIADLIDASSEQAARSALNSLQGAFSARVNHLVEALTHLRIYVEAAIDFPDEEIDFLSDGKIEAQLNDVIADLDAVRAEARQGSLLREGMKVVIAGRPNAGKSSLLNALAGREAAIVTDIAGTTRDVLREHIHIDGMPLHIIDTAGLREASDEVERIGICRAWQEIEQADRVLFMVDGTTTDAVDPAEIWPEFIARLPAKLPITVVRNKADITGETLGMSEVNGHALIRLSARTGEGVDVLRNHLKQSMGFDTNMEGGFLARRRHLQALEQAAEHLQQGKAQLLGAWAGELLAEELRLAQQNLSEITGEFTSDDLLGRIFSSFSIGK | binds |  |
| E. coli MnmE-C451S D366R1 (Asp366 mutated to Cys, MTSSL-labelled) (natural protein, UniProt P25522 1-454, looked up, MTSSL spin label (R1 side chain) on the cysteine at 366, MnmE of E. coli, full length, Cys mutant in the C451S background; source: purified, nucleotide-free) MSDNDTIVAQATPPGRGGVGILRISGFKAREVAETVLGKLPKPRYADYLPFKDADGSVLDQGIALWFPGPNSFTGEDVLELQGHGGPVILDLLLKRILTIPGLRIARPGEFSERAFLNDKLDLAQAEAIADLIDASSEQAARSALNSLQGAFSARVNHLVEALTHLRIYVEAAIDFPDEEIDFLSDGKIEAQLNDVIADLDAVRAEARQGSLLREGMKVVIAGRPNAGKSSLLNALAGREAAIVTDIAGTTRDVLREHIHIDGMPLHIIDTAGLREASDEVERIGIERAWQEIEQADRVLFMVDGTTTDAVDPAEIWPEFIARLPAKLPITVVRNKADITGETLGMSEVNGHALIRLSARTGEGVCVLRNHLKQSMGFDTNMEGGFLARRRHLQALEQAAEHLQQGKAQLLGAWAGELLAEELRLAQQNLSEITGEFTSDDLLGRIFSSFSIGK | binds |  |
| E. coli MnmE-C451S S278R1 (Ser278 mutated to Cys, MTSSL-labelled) (natural protein, UniProt P25522 1-454, looked up, MTSSL spin label (R1 side chain) on the cysteine at 278, MnmE of E. coli, full length, Cys mutant in the C451S background; source: purified, nucleotide-free) MSDNDTIVAQATPPGRGGVGILRISGFKAREVAETVLGKLPKPRYADYLPFKDADGSVLDQGIALWFPGPNSFTGEDVLELQGHGGPVILDLLLKRILTIPGLRIARPGEFSERAFLNDKLDLAQAEAIADLIDASSEQAARSALNSLQGAFSARVNHLVEALTHLRIYVEAAIDFPDEEIDFLSDGKIEAQLNDVIADLDAVRAEARQGSLLREGMKVVIAGRPNAGKSSLLNALAGREAAIVTDIAGTTRDVLREHIHIDGMPLHIIDTAGLREACDEVERIGIERAWQEIEQADRVLFMVDGTTTDAVDPAEIWPEFIARLPAKLPITVVRNKADITGETLGMSEVNGHALIRLSARTGEGVDVLRNHLKQSMGFDTNMEGGFLARRRHLQALEQAAEHLQQGKAQLLGAWAGELLAEELRLAQQNLSEITGEFTSDDLLGRIFSSFSIGK | binds |  |
| E. coli MnmE-C451S I105R1 (Ile105 mutated to Cys, MTSSL-labelled) (natural protein, UniProt P25522 1-454, looked up, MTSSL spin label (R1 side chain) on the cysteine at 105, MnmE of E. coli, full length, Cys mutant in the C451S background; source: purified, nucleotide-free) MSDNDTIVAQATPPGRGGVGILRISGFKAREVAETVLGKLPKPRYADYLPFKDADGSVLDQGIALWFPGPNSFTGEDVLELQGHGGPVILDLLLKRILTIPGLRCARPGEFSERAFLNDKLDLAQAEAIADLIDASSEQAARSALNSLQGAFSARVNHLVEALTHLRIYVEAAIDFPDEEIDFLSDGKIEAQLNDVIADLDAVRAEARQGSLLREGMKVVIAGRPNAGKSSLLNALAGREAAIVTDIAGTTRDVLREHIHIDGMPLHIIDTAGLREASDEVERIGIERAWQEIEQADRVLFMVDGTTTDAVDPAEIWPEFIARLPAKLPITVVRNKADITGETLGMSEVNGHALIRLSARTGEGVDVLRNHLKQSMGFDTNMEGGFLARRRHLQALEQAAEHLQQGKAQLLGAWAGELLAEELRLAQQNLSEITGEFTSDDLLGRIFSSFSIGK | binds |  |
